Assay results taken from article PMC10085699.
Where a chain is given by its changes, count along the chain named.

Key:
Test in all cases: EMSA
Sen1-HD = biological target: T1, Sen1-HD (UniProt Q00416 1095-1904)
T1 sequence: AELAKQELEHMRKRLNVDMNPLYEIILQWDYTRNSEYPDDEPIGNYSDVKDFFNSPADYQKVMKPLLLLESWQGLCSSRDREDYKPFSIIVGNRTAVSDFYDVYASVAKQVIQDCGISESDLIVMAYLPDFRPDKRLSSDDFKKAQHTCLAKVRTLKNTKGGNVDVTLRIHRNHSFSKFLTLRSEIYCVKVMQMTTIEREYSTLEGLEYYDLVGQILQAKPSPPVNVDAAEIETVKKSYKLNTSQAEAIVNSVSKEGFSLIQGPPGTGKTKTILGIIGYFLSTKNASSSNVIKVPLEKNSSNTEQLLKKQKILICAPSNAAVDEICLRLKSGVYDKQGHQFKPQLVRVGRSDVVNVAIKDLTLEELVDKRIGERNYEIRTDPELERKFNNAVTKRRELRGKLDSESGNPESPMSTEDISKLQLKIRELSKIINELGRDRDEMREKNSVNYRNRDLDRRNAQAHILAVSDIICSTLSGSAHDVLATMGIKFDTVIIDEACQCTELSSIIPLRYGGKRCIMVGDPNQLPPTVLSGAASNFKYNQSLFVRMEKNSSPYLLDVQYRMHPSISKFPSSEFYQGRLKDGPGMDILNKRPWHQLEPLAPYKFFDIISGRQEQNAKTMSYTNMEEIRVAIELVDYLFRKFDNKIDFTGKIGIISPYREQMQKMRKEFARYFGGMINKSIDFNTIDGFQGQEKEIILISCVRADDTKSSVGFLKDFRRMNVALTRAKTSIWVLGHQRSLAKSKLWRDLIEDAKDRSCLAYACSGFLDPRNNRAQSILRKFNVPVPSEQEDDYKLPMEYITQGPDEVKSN

SETX-HD-R/H = biological target: T2, SETX-HD-R/H (Homo sapiens, UniProt Q7Z333 1674-2677, R2136H)
T2 sequence: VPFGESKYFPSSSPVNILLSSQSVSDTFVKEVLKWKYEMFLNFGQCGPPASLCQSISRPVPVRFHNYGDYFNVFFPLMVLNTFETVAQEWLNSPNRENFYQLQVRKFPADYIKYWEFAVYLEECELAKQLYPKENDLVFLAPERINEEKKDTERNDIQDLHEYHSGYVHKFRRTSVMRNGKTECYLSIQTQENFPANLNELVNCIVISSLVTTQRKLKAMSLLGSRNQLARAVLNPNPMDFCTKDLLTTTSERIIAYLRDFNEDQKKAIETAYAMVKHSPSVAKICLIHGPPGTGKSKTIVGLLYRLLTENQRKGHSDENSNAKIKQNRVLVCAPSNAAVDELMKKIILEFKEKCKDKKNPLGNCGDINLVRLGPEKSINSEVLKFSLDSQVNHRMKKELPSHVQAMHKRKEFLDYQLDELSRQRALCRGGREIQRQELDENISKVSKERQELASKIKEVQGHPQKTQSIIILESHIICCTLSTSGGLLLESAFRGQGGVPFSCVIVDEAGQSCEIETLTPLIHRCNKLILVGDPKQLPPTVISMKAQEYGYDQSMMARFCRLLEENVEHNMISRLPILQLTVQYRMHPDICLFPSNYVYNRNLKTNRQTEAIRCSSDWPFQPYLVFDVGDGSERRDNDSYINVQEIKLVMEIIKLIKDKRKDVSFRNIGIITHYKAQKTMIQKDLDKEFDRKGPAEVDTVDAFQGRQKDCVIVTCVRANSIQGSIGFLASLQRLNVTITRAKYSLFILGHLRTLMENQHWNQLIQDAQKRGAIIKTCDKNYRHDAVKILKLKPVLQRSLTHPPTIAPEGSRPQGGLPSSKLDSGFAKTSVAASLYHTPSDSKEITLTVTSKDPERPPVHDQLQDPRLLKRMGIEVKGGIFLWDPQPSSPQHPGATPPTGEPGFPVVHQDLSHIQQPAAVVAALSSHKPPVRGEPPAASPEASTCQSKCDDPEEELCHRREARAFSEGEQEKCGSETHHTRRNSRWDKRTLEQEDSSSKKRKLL

SETX-HD-DE/AA = biological target: T3, SETX-HD-DE/AA (Homo sapiens, UniProt Q7Z333 1674-2677, D2181A;E2182A)
T3 sequence: T2 sequence with H463R, D508A, E509A

Measured: binding result

B1: ssDNA pRMS679 (61 nt) (ssDNA)
DNA: TTGTCTTCTCATAAATTTAATCCCCGTACGCTTATACTCCTTTAACTACCCAGTCTTCCCG
binds: Sen1-HD | SETX-HD-R/H | SETX-HD-DE/AA
